Laboratory results taken from the RNAGym collection of RNA variant scans (doi:10.1073/pnas.2313332121).

B1: TPR t1 (parent)
chain: GACCAAUCUGCCCUCAGAGCUCGAGAACAUCUUCGGAUGCAGAGGAGGCAGGCUUCGGUGGCGCGAUAGCGCCAACGUCCUCAACCUCCAAUGCAUCCCACCACAUGAUGAUGCCUGAAGAGCCUUGGUUUUUUG

Variants of: B1
Assay: polymerase ribozyme fitness, log enrichment relative to wild type (log ratio); higher = more active; in vitro selection for triplet polymerase activity
Outline: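 Each subunit of a heterodimeric triplet polymerase ribozyme was represented by a PCR-built, transcribed mutant library that underwent triplicate single-round in vitro selection with frozen incubation at −7 °C. Extended constructs were recovered by gel excision, streptavidin-bead capture and RT-PCR, and Illumina sequencing of input and output libraries kept genotypes with ≥10 input reads and ≥1 read per output. Fitness is the logarithm of genotype enrichment relative to wild-type enrichment, from inverse-variance-weighted replicate averages, with a logarithm base of 2.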

Row | Variant | polymerase ribozyme fitness (log ratio)
1 | G35C C56U | -4.82
2 | G35A U130G | -5.13
3 | G36A A46U G60C C124U | -0.384
4 | G36C C88U C89A | -3.3
5 | G36C G57U A90C U106A | -3.67
6 | G35U C80A | -6.8
7 | G35C C85A U109A C114G C124U | -4.87
8 | G36A G63A U78C | -1.53
9 | G36A G57A C80U U112C C114A A119U G122U | -5.44
10 | G36U C73G U106A G127C | -2.55
11 | G36A C73A | -1.1
12 | G36A C73U | -0.561
13 | G35A G42A G61A U106A U112G A121C G127U G128A | -6.38
14 | G36A A37G G52C | -4.05
15 | G35A G48C | -4.48
16 | G35U C97U G120U | -5.69
17 | C34U G63A A90G | -6.16
18 | C34U G65C G117C A121C | -7.56
19 | G36U C56A U132A | -1.83
20 | G35C C76U G77U C123U | -6.87
21 | G36C G69U G120C | 0.673
22 | C34U G120A | -3.93
23 | C34U G120C | -3.96
24 | G35U C123G | -2.32

Row | Variant | polymerase ribozyme fitness (log ratio)
25 | G36A U59G G69A C94U G113A | -4.53
26 | G35C G69U C79G U130A | -4.92
27 | G36U G44U U112G | -4.18
28 | G36C A66C U125G | -2.72
29 | G35A C56U C72U | -4.68
30 | G36C C70U G113C | -3.46
31 | G36A C73U G127C | -2.76
32 | G35C U106C G117A | -5.76
33 | C34U G61C C102U C124U | -4.34
34 | G36U G60C A100U | -2.77
35 | G35A C102A | -4.61
36 | G36A G71U C76U U125A | -4.4
37 | G36C C76U C123U | -0.606
38 | G35U A84C | -5.41
39 | G36A A43U | -2.94
40 | G36C C53U G61A U112A G113U | -1.83
41 | G36C G51A | -3.99
42 | G36U A105C G135U | -4.66
43 | G35U G39A C80G C97U C114A | -6.51
44 | G36U G51A G60U U112C C123U | -1.16
45 | G35U G45A | -5.37
46 | C34U G61C C94U C98U G120U G127U | -5.79
47 | G36C A84U C85A C114G | -6
48 | G36C G42C G47C C53G C56U G61U C72U C86G U116C | -4.72

Row | Variant | polymerase ribozyme fitness (log ratio)
49 | G36A A41U C56G G57U | -3.93
50 | G36U C101U U116C | -2.19
51 | G35A G113C | -5.03
52 | G36C U92A A118U | -3.89
53 | G35U G61A C85A C114G U131G | -6.32
54 | G35C G36A C40A C94U C114U | -6.41
55 | G36U C104A | -2.99
56 | G35A G61U | -3.61
57 | G36C U126G | -3.08
58 | G36U G44U | -2.24
59 | G36U A50G C114A U132A | -2.9
60 | G36A U54A U112A | 1.22
61 | G36U C73U | -2.28
62 | G35A G58C G60U | -5.24
63 | G36C C49U | -1.18
64 | C34U U109C C114A | -6.96
65 | G36C A37G G60C A121U | 0.419
66 | G36A C86U | -0.488
67 | G36A C72U U116C | -1.78
68 | C34U G63U G69A A84G | -6.86
69 | G36A C53U U126A U129G U133G | -4.06
70 | G36A G52A A66G C79G | -2.84
71 | C34U G61U | -3.87
72 | C34U G61C | -4.48

Row | Variant | polymerase ribozyme fitness (log ratio)
73 | C34U U112C | -2.16
74 | C34U U112G | -3.89
75 | G36U A83U | -1.49
76 | G36C G60U | -0.402
77 | G36A A46C C104U U116A | -3.8
78 | G36A G52C C70G | -5.49
79 | G36U C82G U92C | -2.13
80 | G36U C72G C102U A119U | -4.07
81 | G36U G39C | -1.56
82 | G35A U131C | -6.04
83 | G36C A37U C82A U116G G120C | -3.26
84 | G36U A37C C104U | -1.76
85 | G36A C62A C102A | -5.26
86 | G36U C53G G63C C86U U87A C101A U129G | -5.54
87 | G36A A111G | -3.41
88 | G36A A46U G57U C104U | -1.52
89 | G36C A50C U59A A118U G120A | -0.713
90 | G35C G47A C56U A111G | -5.32
91 | G36A G52C | -2.17
92 | G36U G44A G47A G48U C82G A121C | -0.473
93 | G36A C97A | -3.86
94 | G35C G61A A121U U126A | -3.79
95 | G36U G45U G47U C101U C104A C123G U125C | -5.24
96 | C34U G69A | -5.14

Row | Variant | polymerase ribozyme fitness (log ratio)
97 | G36C G47U G110C | -5.66
98 | C34U U109A U130G | -4.69
99 | C34U U112C C124A | -1.63
100 | G36U C73U C114G C115G A119C G127U | -6.83
101 | G35U A119U A121C C124A | -4.47
102 | G36C A50U C62U C101G | -4.84
103 | G36A G63A | -1.78
104 | G35C C49A U112G | -6.16
105 | G35U U59A | -6.05
106 | G36U C56U | -1.07
107 | G35A C72U A75U G77C C97U G120A U125A | -6.29
108 | G36A G45C C49A C73A | -0.979
109 | G36U G44A C104A | -4.47
110 | G36A C70A C114A | -5.75
111 | C34U G71U | -3.99
112 | G36C C40A A74C G93C | -2.45
113 | G35C G39U C64U | -7.51
114 | G36A G58A C62U U116A | -4.45
115 | G35A U55G | -4.9
116 | G35C G61C C98G | -5.36
117 | G36A U129G | -2.39
118 | G35U C72U G117C | -7.07
119 | G36U A74G A105U | -3.55
120 | G36U G44U A75G U112C U131G | -1.21

Row | Variant | polymerase ribozyme fitness (log ratio)
121 | G35C C123G | -2.8
122 | G36A U54A C89G C101G | -5.15
123 | G36U G58U U59A A91C U112A | -2.22
124 | G35A A66G | -6.38
125 | G35A C53G C70A C104U G117U C124G U126G | -6.92
126 | G36A G61A | -0.395
127 | C34U U81A | -5.06
128 | C34U U81C | -5.69
129 | G36C C53U U55G G113C G120C | -2.92
130 | G35A G69C C115U | -6.53
131 | G35A C56A | -4.2
132 | C34U G69U A105U G120U | -2.74
133 | G35U C86U C98A | -4.39
134 | G36A G71A U87C C123G | 0.907
135 | G36A G61U U87C C123G | 0.936
136 | G36A G63U C85G | -2.03
137 | G35U C49A C64U | -6.12
138 | G35A G117C | -6.51
139 | G35A G117U | -5.09
140 | G35U U112C | -3.04
141 | G36C C40A C101A C104U A121U | -1.4
142 | G35U G65U A121G | -5.82
143 | C34U G60U | -3.24
144 | G35C A46C A118U C123G | -4.04

Row | Variant | polymerase ribozyme fitness (log ratio)
145 | G36C G44U A46C A50G G69U U78A C85A C124U | -4.01
146 | G35A A100G | -6.42
147 | G36A U78A C82G U125G | -2.73
148 | G35U G113C | -7.04
149 | G36U A90G | -0.944
150 | G35U G48C A121C | -3.96
151 | G35A C89A | -5.84
152 | G35A C124G | -2
153 | G36A U55G U87A | -1.87
154 | G36A G93C | -1.47
155 | G35U G39C G120A U125A | -5.76
156 | G36A G45U G61C | -3.57
157 | G36C C82G U126C | -2.57
158 | G35A C123G U129G | -2.61
159 | G36A G47C C124U | -0.979
160 | G36U G42U C99A C114A | -7.29
161 | G36C G52A | -1.54
162 | G35U C72U | -4.43
163 | G36A U125G | -1.83
164 | G36U C56G C82U G113A | -2.31
165 | G36C U38C G71U | -4.73
166 | G35A G61C A111C | -5.93
167 | G35U G120U | -5.06
